The data set deals with the molecule itself. Nature of the data set: static light scattering; self-association.

Method: Light scattering analysis. Measurements were made with a Protein Solutions DynaPro Temperature Controlled Microsampler. Samples were adjusted to the desired concentration and particulates removed by filtration through a 0.2μ microcon device, and subsequent clearing by brief centrifugation at 14,000×g and 4° C. The protein concentration was then determined directly using absorbance at 280 nm and a calculated molar extinction coefficient, taking the average of 3 readings. All samples were analyzed under conditions of 10° C. in a buffer of 25 mM BisTris pH 6.1, 500 mM NaCl, 1 mM DTT, 0.1 mM EDTA, 5% glycerol. The molecular mass (MW I) was calculated from the static light scattering measurements (at least 300 acquisitions per protein sample) using the DynaPro software.

B1: ASV IN(1-207) (enzyme)
chain: PLREAKDLHTALHIGPRALSKACNISMQQAREVVQTCPHCNSAPALEAGVNPRGLGPLQIWQTDFTLEPRMAPRSWLAVTVDTASSAIVVTQHGRVTSVAAQHHWATAIAVLGRPKAIKTDNGSCFTSKSTREWLARWGIAHTTGIPGNSQGQAMVERANRLLKDKIRVLAEGDGFMKRIPTSKQGELLAKAMYALNHFERGENTKT
notes: also called IN fragment that lacks the CTD
B1: the binding result was “no binding (tested: 1.5 mg/ml)”.

These data come from patent US20130280271A1 (INSTITUTE FOR CANCER RESEARCH, published 2013).
